According to patent US9932404B2:

Target: full length human TLR3 (human)

- % inhibition of poly(I:C)-induced NF-κB luciferase reporter: 8%
Substance: TLR3.7 (eBiosciences, cat no 14-9039) (antibody)
